Measured values from article PMC9779362, “The J Domain of Sacsin Disrupts Intermediate Filament Assembly” (International Journal of Molecular Sciences, 2022).

Target: the molecule itself
Assay: negative-stain transmission electron microscopy of in vitro assembly; purified NFL (0.24 µg/µL) dialysed stepwise out of urea into assembly buffer, overnight at 4 °C; 2% uranyl acetate

B1: recombinant human NFL (neurofilament light chain) (natural protein, UniProt P07196 1-543, looked up)
chain: MSSFSYEPYYSTSYKRRYVETPRVHISSVRSGYSTARSAYSSYSAPVSSSLSVRRSYSSSSGSLMPSLENLDLSQVAAISNDLKSIRTQEKAQLQDLNDRFASFIERVHELEQQNKVLEAELLVLRQKHSEPSRFRALYEQEIRDLRLAAEDATNEKQALQGEREGLEETLRNLQARYEEEVLSREDAEGRLMEARKGADEAALARAELEKRIDSLMDEISFLKKVHEEEIAELQAQIQYAQISVEMDVTKPDLSAALKDIRAQYEKLAAKNMQNAEEWFKSRFTVLTESAAKNTDAVRAAKDEVSESRRLLKAKTLEIEACRGMNEALEKQLQELEDKQNADISAMQDTINKLENELRTTKSEMARYLKEYQDLLNVKMALDIEIAAYRKLLEGEETRLSFTSVGSITSGYSQSSQVFGRSAYGGLQTSSYLMSTRSFPSYYTSHVQEEQIEVEETIEAAKAEEAKDEPPSEGEAEEEEKDKEEAEEEEAAEEEEAAKEESEEAKEEEEGGEGEEGEETKEAEEEEKKVEGAGEEQAAKKKD
notes: neurofilament light polypeptide (NFL), human, cloned into pET23b (gift of Dr. Walter Mushynski); Used as assembled filaments (TEM, sedimentation) and as the soluble fraction after centrifugation (pull-down); also called soluble recombinant NFL; source: bacteria (pET23b), inclusion bodies solubilised in 8 M urea, purified on hydroxyapatite, dialysed into assembly buffer
  binding result: binds
